Assay results taken from patent publication US20190241629A1.

What was measured:
[1] = target: recombinant factor B derived from Tachypleus tridentatus (Tachypleus tridentatus) (UniProt Q27081); test: cell-based or functional assay
[2] = target: T1, recombinant protein having proclotting enzyme activity of Limulus polyphemus (recombinant third protein)
T1 chain: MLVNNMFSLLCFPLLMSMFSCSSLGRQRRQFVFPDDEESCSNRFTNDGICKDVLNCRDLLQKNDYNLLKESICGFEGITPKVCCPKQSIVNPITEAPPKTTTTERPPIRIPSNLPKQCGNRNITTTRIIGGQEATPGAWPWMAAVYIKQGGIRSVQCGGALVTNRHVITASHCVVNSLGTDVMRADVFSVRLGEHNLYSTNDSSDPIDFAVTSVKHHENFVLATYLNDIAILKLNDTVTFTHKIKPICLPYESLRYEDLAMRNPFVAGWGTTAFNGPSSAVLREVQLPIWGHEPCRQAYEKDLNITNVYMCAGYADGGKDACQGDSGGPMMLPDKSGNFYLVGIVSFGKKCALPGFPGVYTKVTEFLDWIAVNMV

[3] = target: T2, recombinant factor B derived from Tachypleus tridentatus, Q27081
T2 chain: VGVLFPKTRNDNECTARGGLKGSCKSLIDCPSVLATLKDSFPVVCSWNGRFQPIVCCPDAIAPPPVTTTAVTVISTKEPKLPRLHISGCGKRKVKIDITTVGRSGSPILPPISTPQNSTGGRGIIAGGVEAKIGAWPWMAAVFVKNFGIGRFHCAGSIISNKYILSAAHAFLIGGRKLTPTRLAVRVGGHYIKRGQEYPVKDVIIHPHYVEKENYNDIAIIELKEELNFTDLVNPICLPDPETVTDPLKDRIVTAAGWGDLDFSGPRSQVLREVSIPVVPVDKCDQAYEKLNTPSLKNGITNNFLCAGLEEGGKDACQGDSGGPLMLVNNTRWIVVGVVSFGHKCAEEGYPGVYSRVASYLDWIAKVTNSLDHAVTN

[4] = target: T3, recombinant protein having factor B activity of Limulus polyphemus (recombinant second protein)
T3 chain: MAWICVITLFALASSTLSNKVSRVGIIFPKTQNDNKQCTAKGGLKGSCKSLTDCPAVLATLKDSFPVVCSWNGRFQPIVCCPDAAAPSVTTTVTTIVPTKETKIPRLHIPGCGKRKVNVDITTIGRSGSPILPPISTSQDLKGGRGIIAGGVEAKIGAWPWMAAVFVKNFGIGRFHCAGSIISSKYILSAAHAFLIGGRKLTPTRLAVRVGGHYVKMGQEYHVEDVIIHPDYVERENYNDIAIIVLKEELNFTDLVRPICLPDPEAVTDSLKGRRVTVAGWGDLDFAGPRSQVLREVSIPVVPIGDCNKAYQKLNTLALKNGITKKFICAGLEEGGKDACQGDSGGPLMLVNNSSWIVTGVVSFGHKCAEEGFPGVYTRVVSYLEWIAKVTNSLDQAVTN

recombinant factor C derived from the genus Tachypleus (Tachypleus tridentatus) (from UniProt P28175 26-1019) (enzyme)
change in the absorbance in the cascade reaction system (TFC + TFB + TPCE + Boc-LGR-pNA) at endotoxin 0 EU/mL (blank) [1]: 0.51 mAbs/min
change in the absorbance in the cascade reaction system (TFC + TFB + TPCE + Boc-LGR-pNA) at endotoxin 0.05 EU/mL [1]: 9.15 mAbs/min

B1: recombinant protein having factor B activity of Limulus polyphemus (recombinant second protein) (protein)
chain: MAWICVITLFALASSTLSNKVSRVGIIFPKTQNDNKQCTAKGGLKGSCKSLTDCPAVLATLKDSFPVVCSWNGRFQPIVCCPDAAAPSVTTTVTTIVPTKETKIPRLHIPGCGKRKVNVDITTIGRSGSPILPPISTSQDLKGGRGIIAGGVEAKIGAWPWMAAVFVKNFGIGRFHCAGSIISSKYILSAAHAFLIGGRKLTPTRLAVRVGGHYVKMGQEYHVEDVIIHPDYVERENYNDIAIIVLKEELNFTDLVRPICLPDPEAVTDSLKGRRVTVAGWGDLDFAGPRSQVLREVSIPVVPIGDCNKAYQKLNTLALKNGITKKFICAGLEEGGKDACQGDSGGPLMLVNNSSWIVTGVVSFGHKCAEEGFPGVYTRVVSYLEWIAKVTNSLDQAVTN
cleavage of synthetic substrate Boc-LGR-pNA (change in absorbance A405 nm) in the cascade reaction with endotoxin (0 and 0.05 EU/mL); FC + FB + PCE [2]: when all the three types of recombinant proteins were included, cleavage of the synthetic substrate was observed

B2: recombinant factor C derived from Limulus polyphemus (recombinant first protein, protein having factor C activity) (protein)
chain: RGVDLGLCDDTRFECKCGDPGYVFNVPAKQCTYFYRWRPYCKPCDKLEAKDVCPKYKRCQECRAGLDSCVSCPPNKYGTWCSGECQCKNGGICDQRTGACTCRDRYEGVHCEILQGCPLLQSDPQVQEVKNPPNDPQTIDYSCSPGFKLKGVARITCLPNGQWSSFPPKCIRECSMVSSLEHGKVNSPSADLIEGATLRFSCDSPYYLIGQETLTCQGNGQWSGQIPQCQKLVFCPDLDPVSHAEHQVKIGLEQKYGQFPQGTEVTYTCTGNYFLMGLDTLKCNPDGSWSGTQPSCVKVADREVNCDSKAVDFLDDVGEPVRIHCPAGCSLTAGTVWGTAIYHELSSVCRAAIHAGKVPNSGGAVHVVNNGPYSDFLASDLNGIKSDELKSLAQSFRFDYVSSSTAGRKSGCPDGWFEIEENCVYVTSKQRAWERAQGVCTNMAARLAVLDKDVIPSSLTETLRGKGLATTWIGLHRLDADNHFIWELMDRSSVALNDSLTFWAPGEPGNETNCVYLDIQDQLQPVWKTKSCFQPSSFVCMMDLSDKNKAKCKDPGPLENGHAKLHGQSIDGFYAGSSVRYSCEVLHYLSGTETVSCTSNGTWSAPKPRCIKVITCQTPPVPSYGSVDIKPPSRTNSISRVGSPFLRLPRLPLPLARAAGPPPKPRSAPPSTVDLSSKVKLPEGHYRVGSQAIYTCESRYYELLGSQGRRCDSNGKWSGRPASCIPVCGRSDSPRSPFIVNGNSTEIGQWPWQAGISRWLADHNMWFLQCGGALLNEKWIITAAHCVTYSATAEIIDPSQFKFYLGKYYRDDSKDDDYVQVREAIEIHVNPNYDPGNLNFDIALIQLKTSVALTTRVQPICLPTDLTTRENLKEGALAVVTGWGLNENNTYSEMIQQAVLPVVAASTCEQGYQDSGLPLTVTENMFCAGYKQGRYDACSGDSGGPLVFADDSRTDRRWVLEGIVSWGSPNGCGKSNQYGGFTKVNVFLSWIRQFI
change in the absorbance in the cascade reaction system (LFC + TFB + TPCE + Boc-LGR-pNA) at endotoxin 0 EU/mL (blank) [1]: 0.53 mAbs/min
change in the absorbance in the cascade reaction system (LFC + TFB + TPCE + Boc-LGR-pNA) at endotoxin 0.05 EU/mL [1]: 14.3 mAbs/min
activity in the cascade reaction system relative to TFC [3]: LFC showed the activity about 1.6 times (about 2.2 times when considering the difference in the protein amount) higher than TFC
activity in the cascade reaction system relative to TFC, corrected for the difference in the protein amount [3]: LFC showed the activity about 1.6 times (about 2.2 times when considering the difference in the protein amount) higher than TFC
cleavage of synthetic substrate Boc-LGR-pNA (change in absorbance A405 nm) in the cascade reaction with endotoxin (0 and 0.05 EU/mL); FC + FB + PCE [4]: when all the three types of recombinant proteins were included, cleavage of the synthetic substrate was observed
